Experimental data as given in article PMC10397247.

Key:
Experiment in all cases: two-hybrid library CCNG1;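 also: natural log of median RNA to DNA barcode read ratio; higher means stronger binding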
O3 = target: T1, O3
T1 chain: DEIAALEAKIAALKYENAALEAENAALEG

O6 = target: T2, O6
T2 chain: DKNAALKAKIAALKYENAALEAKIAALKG

O5 = target: T3, O5
T3 chain: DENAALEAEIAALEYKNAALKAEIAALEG

O2 = target: T4, O2
T4 chain: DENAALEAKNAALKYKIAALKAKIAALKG

O8 = target: T5, O8
T5 chain: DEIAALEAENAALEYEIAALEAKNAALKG

O7 = target: T6, O7
T6 chain: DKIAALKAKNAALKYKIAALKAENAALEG

O9 = target: T7, O9
T7 chain: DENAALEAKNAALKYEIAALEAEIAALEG

O4 = target: T8, O4
T8 chain: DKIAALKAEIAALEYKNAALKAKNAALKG

4H591-bH = target: T9, 4H591-bH
T9 chain: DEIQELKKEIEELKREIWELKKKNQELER

4H3462-bH = target: T10, 4H3462-bH
T10 chain: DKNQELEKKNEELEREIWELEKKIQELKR

4H3277-bH = target: T11, 4H3277-bH
T11 chain: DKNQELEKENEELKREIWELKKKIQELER

4H3613-bH = target: T12, 4H3613-bH
T12 chain: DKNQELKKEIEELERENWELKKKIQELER

4H3926-bH = target: T13, 4H3926-bH
T13 chain: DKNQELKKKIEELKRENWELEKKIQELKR

4H3628-bH = target: T14, 4H3628-bH
T14 chain: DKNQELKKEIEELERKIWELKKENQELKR

4H3497-bH = target: T15, 4H3497-bH
T15 chain: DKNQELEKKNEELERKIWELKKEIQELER

4H607-bH = target: T16, 4H607-bH
T16 chain: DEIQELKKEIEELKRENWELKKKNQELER

4H906-bH = target: T17, 4H906-bH
T17 chain: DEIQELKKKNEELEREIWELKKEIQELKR

4H3175-bH = target: T18, 4H3175-bH
T18 chain: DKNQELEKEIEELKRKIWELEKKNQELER

4H626-bH = target: T19, 4H626-bH
T19 chain: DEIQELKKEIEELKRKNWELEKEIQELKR

4H3298-bH = target: T20, 4H3298-bH
T20 chain: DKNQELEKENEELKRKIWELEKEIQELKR

4H3162-bH = target: T21, 4H3162-bH
T21 chain: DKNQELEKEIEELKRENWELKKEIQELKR

O2-bA = target: T22, O2-bA
T22 chain: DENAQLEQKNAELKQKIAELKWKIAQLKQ

O15-bA = target: T23, O15-bA
T23 chain: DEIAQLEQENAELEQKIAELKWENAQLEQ

O3-bA = target: T24, O3-bA
T24 chain: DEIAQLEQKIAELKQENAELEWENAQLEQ

O5-bA = target: T25, O5-bA
T25 chain: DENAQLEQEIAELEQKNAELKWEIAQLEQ

O8-bA = target: T26, O8-bA
T26 chain: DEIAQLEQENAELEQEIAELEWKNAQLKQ

O4-bA = target: T27, O4-bA
T27 chain: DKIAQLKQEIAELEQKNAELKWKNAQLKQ

O9-bA = target: T28, O9-bA
T28 chain: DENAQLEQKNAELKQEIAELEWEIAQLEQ

O7-bA = target: T29, O7-bA
T29 chain: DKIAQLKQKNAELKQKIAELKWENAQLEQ

O6-bA = target: T30, O6-bA
T30 chain: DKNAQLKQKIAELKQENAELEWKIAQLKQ

O16-bA = target: T31, O16-bA
T31 chain: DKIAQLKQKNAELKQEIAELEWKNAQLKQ

4H619-bH = target: T32, 4H619-bH
T32 chain: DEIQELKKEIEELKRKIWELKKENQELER

4H3631-bH = target: T33, 4H3631-bH
T33 chain: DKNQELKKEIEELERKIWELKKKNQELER

4H850-bH = target: T34, 4H850-bH
T34 chain: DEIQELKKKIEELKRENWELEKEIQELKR

4H72-bH = target: T35, 4H72-bH
T35 chain: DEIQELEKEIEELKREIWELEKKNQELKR

4H570-bH = target: T36, 4H570-bH
T36 chain: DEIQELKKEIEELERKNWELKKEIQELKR

4H3129-bH = target: T37, 4H3129-bH
T37 chain: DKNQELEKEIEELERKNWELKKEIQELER

4H584-bH = target: T38, 4H584-bH
T38 chain: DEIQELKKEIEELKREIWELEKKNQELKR

4H3414-bH = target: T39, 4H3414-bH
T39 chain: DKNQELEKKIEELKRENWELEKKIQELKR

4H3858-bH = target: T40, 4H3858-bH
T40 chain: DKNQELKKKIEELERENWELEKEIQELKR

4H3817-bH = target: T41, 4H3817-bH
T41 chain: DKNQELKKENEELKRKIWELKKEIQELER

4H3974-bH = target: T42, 4H3974-bH
T42 chain: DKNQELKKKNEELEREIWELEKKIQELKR

4H3638-bH = target: T43, 4H3638-bH
T43 chain: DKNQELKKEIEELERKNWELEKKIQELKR

4H3172-bH = target: T44, 4H3172-bH
T44 chain: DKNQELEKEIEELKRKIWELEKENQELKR

4H1985-bH = target: T45, 4H1985-bH
T45 chain: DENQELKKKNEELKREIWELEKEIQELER

4H3112-bA = target: T46, 4H3112-bA
T46 chain: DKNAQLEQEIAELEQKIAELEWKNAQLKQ

4H968-bA = target: T47, 4H968-bA
T47 chain: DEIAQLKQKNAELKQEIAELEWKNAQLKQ

4H3010-bA = target: T48, 4H3010-bA
T48 chain: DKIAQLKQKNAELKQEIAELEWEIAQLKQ

4H3926-bA = target: T49, 4H3926-bA
T49 chain: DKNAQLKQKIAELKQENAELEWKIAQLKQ

4H4073-bA = target: T50, 4H4073-bA
T50 chain: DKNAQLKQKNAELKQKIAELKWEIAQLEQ

4H575-bA = target: T51, 4H575-bA
T51 chain: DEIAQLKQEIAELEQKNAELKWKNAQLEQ

4H918-bA = target: T52, 4H918-bA
T52 chain: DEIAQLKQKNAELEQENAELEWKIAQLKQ

4H797-bA = target: T53, 4H797-bA
T53 chain: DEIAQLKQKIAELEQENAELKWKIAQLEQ

4H683-bA = target: T54, 4H683-bA
T54 chain: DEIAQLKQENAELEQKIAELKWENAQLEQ

4H3427-bA = target: T55, 4H3427-bA
T55 chain: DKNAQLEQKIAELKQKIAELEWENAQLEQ

4H457-bA = target: T56, 4H457-bA
T56 chain: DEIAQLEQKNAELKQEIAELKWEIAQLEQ

4H346-bA = target: T57, 4H346-bA
T57 chain: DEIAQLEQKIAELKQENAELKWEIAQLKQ

4H2702-bA = target: T58, 4H2702-bA
T58 chain: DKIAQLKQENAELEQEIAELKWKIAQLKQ

4H953-bA = target: T59, 4H953-bA
T59 chain: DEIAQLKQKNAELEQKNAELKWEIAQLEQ

4H855-bA = target: T60, 4H855-bA
T60 chain: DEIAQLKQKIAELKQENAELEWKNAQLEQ

4H780-bA = target: T61, 4H780-bA
T61 chain: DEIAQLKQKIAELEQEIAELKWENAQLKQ

4H754-bA = target: T62, 4H754-bA
T62 chain: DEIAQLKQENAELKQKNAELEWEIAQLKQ

B1: O2 (peptide)
chain: DENAALEAKNAALKYKIAALKAKIAALKG
interaction score (O3): -1.84
interaction score (O6): -2.66
interaction score (O5): -1.97
interaction score (O2): -2.16
interaction score (O8): -0.949
interaction score (O7): -2.4
interaction score (O9): 0.313
interaction score (O4): -1.83

B2: 4H3162-bH (peptide)
chain: DKNQELEKEIEELKRENWELKKEIQELKR
interaction score (4H591-bH): -0.636
interaction score (4H3462-bH): -0.66
interaction score (4H3277-bH): -0.247
interaction score (4H3613-bH): 0.334
interaction score (4H3926-bH): 1.52
interaction score (4H3628-bH): -1.68
interaction score (4H3497-bH): -0.619
interaction score (4H607-bH): -2.63
interaction score (4H906-bH): -0.0502
interaction score (4H3175-bH): -1.88
interaction score (4H626-bH): -1.98
interaction score (4H3298-bH): -0.633
interaction score (4H3162-bH): 0.549

B3: O13-bA (peptide)
chain: DKNAQLKQKIAELKQKNAELKWEIAQLEQ
interaction score (O2-bA): -1.17
interaction score (O15-bA): 0.435
interaction score (O3-bA): -1.05
interaction score (O5-bA): 0.182
interaction score (O8-bA): 0.83
interaction score (O4-bA): -1.31
interaction score (O9-bA): -0.882
interaction score (O7-bA): -1.07
interaction score (O6-bA): 1.39
interaction score (O16-bA): -1.53

B4: 4H1985-bH (peptide)
chain: DENQELKKKNEELKREIWELEKEIQELER
interaction score (4H619-bH): -1.32
interaction score (4H591-bH): -1.01
interaction score (4H3462-bH): -0.482
interaction score (4H3631-bH): 0.015
interaction score (4H850-bH): -0.707
interaction score (4H72-bH): -0.781
interaction score (4H3277-bH): -0.449
interaction score (4H3613-bH): -1.08
interaction score (4H570-bH): -0.979
interaction score (4H3926-bH): -0.572
interaction score (4H3628-bH): -0.631
interaction score (4H3129-bH): -0.549
interaction score (4H584-bH): -1.1
interaction score (4H3497-bH): -0.884
interaction score (4H3414-bH): -0.255
interaction score (4H3858-bH): -1.02
interaction score (4H906-bH): -0.874
interaction score (4H3817-bH): -0.0213
interaction score (4H3974-bH): 0.0704
interaction score (4H3175-bH): -0.853
interaction score (4H626-bH): -2.1
interaction score (4H3638-bH): -0.17
interaction score (4H3298-bH): -0.821
interaction score (4H3172-bH): -1.84
interaction score (4H1985-bH): -2.13
interaction score (4H3162-bH): -1.36

B5: O14-bA (peptide)
chain: DENAQLEQEIAELEQENAELEWKIAQLKQ
interaction score (O2-bA): 0.492
interaction score (O15-bA): -0.126
interaction score (O3-bA): -0.879
interaction score (O5-bA): 1.69
interaction score (O8-bA): -0.111
interaction score (O4-bA): -0.146
interaction score (O9-bA): -0.575
interaction score (O7-bA): 2.14
interaction score (O6-bA): 2.5
interaction score (O16-bA): 2.36

B6: 4H2702-bA (peptide)
chain: DKIAQLKQENAELEQEIAELKWKIAQLKQ
interaction score (4H3112-bA): 0.438
interaction score (O15-bA): 0.113
interaction score (4H968-bA): 2.68
interaction score (4H3010-bA): 2.07
interaction score (4H3926-bA): 1.22
interaction score (4H4073-bA): 2.39
interaction score (4H575-bA): -1.27
interaction score (4H918-bA): -0.134
interaction score (4H797-bA): -1.02
interaction score (4H683-bA): -1.86
interaction score (4H3427-bA): 0.956
interaction score (4H457-bA): 1.03
interaction score (O4-bA): -0.822
interaction score (4H346-bA): 0.224
interaction score (4H2702-bA): 1.87
interaction score (4H953-bA): 1.82
interaction score (4H855-bA): -1.38
interaction score (4H780-bA): -1.04
interaction score (4H754-bA): -1.37

B7: O15-bA (peptide)
chain: DEIAQLEQENAELEQKIAELKWENAQLEQ
interaction score (O2-bA): -0.458
interaction score (O15-bA): -1.57
interaction score (O3-bA): -1.21
interaction score (O5-bA): -0.66
interaction score (O8-bA): -0.714
interaction score (O4-bA): -0.5
interaction score (O9-bA): -0.0414
interaction score (O7-bA): 1.63
interaction score (O6-bA): -0.551
interaction score (O16-bA): 2.52
